Laboratory results published in article PMC4981287.

Experiments:
[1] = biological target: HiLyteFluor488-labeled amyloid-β(1-40) fibrils (UniProt P05067)
[2] = biological target: HiLyteFluor488-labeled amyloid-β(1-40) fibrils (UniProt P05067); assay: confocal two-color coincidence detection
[3] = biological target: HiLyteFluor488-labeled amyloid-β(1-40) oligomers formed from the disaggregation of fibrils (UniProt P05067); assay: confocal two-color coincidence detection
Chain of HiLyteFluor488-labeled amyloid-β(1-40) oligomers formed from the disaggregation of fibrils (P05067 672-711): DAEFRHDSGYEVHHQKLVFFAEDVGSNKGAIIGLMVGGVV

Chain of HiLyteFluor488-labeled amyloid-β(1-40) fibrils (P05067 672-711): as above

AlexaFluor647-labeled αB-crystallin (from UniProt P02511 1-175) (natural protein)
Kd [1]: 1200 nM
koff [2]: 4.4e-05 s⁻¹
half-time for dissociation [3]: 17 h
stoichiometry N (αB-crystallin molecule per Aβ monomer) [3]: 1
